Article PMC4222533 (Biochemistry, 2014)

Target: integrin αIIb cytoplasmic tail peptide (starting from W988)
Assay: ITC

Kd: 14.2 ± 4.3 µM
B1: skelemin tandem IgC2 domains 4 and 5 with the interconnecting linker, C1354S (domain or fragment)
chain: DEEEMKRLLALSQEHKFPTVPTKSELAVEILEKGQVRFWMQAEKLSSNAKVSYIFNEKEIFEGPKYKMHIDRNTGIIEMFMEKLQDEDEGTYTFQIQDGKATGHSTLVLIGDVYKKLQKEAEFQRQEWIRKQGPHFAEYLSWEVTGESNVLLKCKVANIKKETHIVWYKDEREISVDEKHDFKDGICTLLITEFSKKDAGFYEVILKDDRGKDKSRLKLVD
modifications: uniformly 15N or 15N/13C labelled for NMR
